Key:
[1] = system: Sf21 cells transfected with pHSP120; assay: Toxicity assay (Trypan blue cell mortality), Sf21 cells expressing M. sexta 120 kDa APN; conditions: 2 h
Protocol: (§1) The pHSP120 plasmid DNA was isolated and purified using a Plasmid Maxi Kit (Qiagen, Valencia, Calif.). Sf21 (IPLB-Sf21) cells (Vaughn et al., 1977) were plated at 1.8×10^6 cells per plate (60 mm diameter) prior to transfection with pHSP120 DNA. Plasmid DNA (10 μg) was mixed with 5 μl of Lipofectin reagent (Gibco BRL, Gaithersburg, Md.) and combined with 1 ml of TC-100 medium (Gibco BRL, Gaithersburg, Md.). The mixture was incubated at room temperature for 15 min. Following 3 washes with TC-100 medium, the DNA/Lipofectin mixture was added to the cells, and then the cells were incubated at room temperature for 4 h on a rocker. After removal of DNA/Lipofectin mixture, TC-100 with 10% fetal bovine serum (4 ml) was added to the plates and the cells were incubated at 27° C. overnight. Expression of 120 kDa APN in Sf21 cells was induced by heat-shocking cells at 42° C. for 30 min the following day. After incubation at 27° C. for 24 h, the cells were collected and analyzed using immunofluorescence localization and Western blotting.
Sf21 cells (1.8×10^6) were grown and heat-shocked as described above. […] The freshly prepared toxin solution (1 ml) was added to each Sf21 cell plate and incubated at room temperature for 2 h. Cell mortality was determined by trypan blue staining as described by Thomas and Ellar (1983).
(§2) Thetoxicity of three Cry1toxins to Sf21 cells expressing M sexta 120 APN was determined. A single concentration of Cry1toxins (40 μg/ml) was used and the cell mortality was measured by Trypan blue staining (Thomas and Ellar 1983).

[2] = system: Sf21 cells transfected with pHSP-HR5; assay: Toxicity assay (Trypan blue cell mortality), control-vector Sf21 cells; conditions: 40 μg/ml toxin in insect PBS, 2 h, Trypan blue (0.1%) staining; means of three assays (±standard error); control vector
Protocol: as §1, with “Expression of 120 kDa APN in Sf21 cells was induced by heat-shocking cells at 42° C. for 30 min the following day.” left out
Sf21 cells (1.8×10^6) were grown and heat-shocked as described above. […] Cell mortality was determined by trypan blue staining as described by Thomas and Ellar (1983).
as §2

[3] = system: expressed 120 kDa APN on Sf21 cells transfected with pHSP120; assay: Immunofluorescence binding of rhodamine-labeled toxins to Sf21 cells (confocal microscopy), pHSP120; design: species or system Manduca sexta; conditions: toxin 1 μg/ml, fixed Sf21 cells transfected with pHSP120
Protocol: Growth of B. thuringiensis strains, trypsin activation, and fast-performance liquid chromatography (Pharmacia) purification of Cry1Ac, […] and Cry3a toxins were done as previously described (Garczynski et al 1991; Lu and Adang 1996). […] The purified Cry1Ac and Cry1Ba (200 μg) were labeled with 5-(and-6)-carboxytetramethylrhodamine, succinimidyl ester [5(6)-TAMRA SE] (Molecular Probe, Eugene, Oreg.) according to the manufacturer's instructions. Briefly, 5(6)-TAMRA (5 mg) were dissolved in 0.5 ml of Dimethylformamide (DMF) immediately before starting the labeling. The dye solution (100 μl) was slowly added into 500 μl of toxin sample (200 μg toxins) and incubated for 1 h at room temperature. The reaction was stopped by adding 0.1 ml of 1.5 M hydroxylamine, pH 8.5, and then the mixture was incubated. for 1h at room temperature. […]
Sf21 cells were plated onto a microscope cover glass (18×18 mm) in a tissue culture dish (60×15 mm diameter), and then transfected and heat-shocked as described above. […] Immunostained cells were observed using fluorescence microscopy or fluorescence confocal microscopy (Center for Advanced Ultrastructural Research, University of Georgia).
Since the expressed 120 kDa APN located on Sf21 cell surfaces, we examined the binding of Cry1toxins to Sf21 cells using double immunofluorescence staining. […] And then cells were viewed by fluorescence confocal microscopy.

[4] = system: expressed 120 kDa APN from Sf21 cells; assay: Toxin affinity chromatography and anti-APN immunoblot, Sf21 cells; type: binding, Manduca sexta; conditions: CHAPS-solubilized Sf21 cells, anti-APN immunoblot (FIG. 13)
Protocol: Affinity purification method of M. sexta 120 kDa APN from Sf21 cells or M. sexta midgut BBMV was described in Luo et al (1996). Briefly, Cry1Ac, Cry1Ba and Cry3a toxins (200 μg) were coupled to 400 μl of cyanogen bromide-activated Sepharose 4B in 20 mM Na2CO3, pH 9.6. M sexta BBMV (1 ml, 3.4 mg/ml proteins) or Sf21 cells (10^7 cells) were solubilized with 2% 3-[(3-cholamidopropyl) dimethylammoniol]-1-propane-sulphonate (CHAPS) in buffer A (50 mM Na2CO3, pH 9.6, 200 mM NaCl, 5 mM EGTA, 0.1% CHAPS). Insoluble material was removed by centrifugation at 27,000×g for 30 min at 4° C. CHAPS-solubilized BBMV (1 ml) or Sf21 cells (2 ml) were then added to the toxin-coupled Sepharose beads equilibrated with Buffer A. The mixture was incubated at 4° C. overnight. After washing with 100 ml of Buffer A, the binding protein-toxin complex was dissociated from the beads by heating in SDS-PAGE sample buffer at 100° C. for 5 min. The samples were separated by 8% SDS-PAGE, and then electrophoretically transferred to nitrocellulose membrane (Millipore Corp., Bedford, Mass.) in transfer buffer (Towbin et al., 1979) at 4° C. overnight. The membrane was blocked with 5% non-fat dry milk in PBST at room temperature for 1 h, and then probed with anti-APN antibody (0.5 μg/ml) in PBST containing 0.1% non-fat dry milk for 2 h. […]

[5] = target: T1, native 120 kDa APN from M sexta BBMV (Manduca sexta, UniProt Q11001); assay: Toxin affinity chromatography and anti-APN immunoblot, midgut BBMV; type: binding; conditions: CHAPS-solubilized M sexta BBMV, anti-APN immunoblot (FIG. 13)
T1 construct: native 120 kDa APN from M sexta BBMV; from tissue; host or cells: brush border membrane vesicles from midguts of 5th instar M. sexta larvae, CHAPS-solubilised
T1 sequence (Q11001 36-968): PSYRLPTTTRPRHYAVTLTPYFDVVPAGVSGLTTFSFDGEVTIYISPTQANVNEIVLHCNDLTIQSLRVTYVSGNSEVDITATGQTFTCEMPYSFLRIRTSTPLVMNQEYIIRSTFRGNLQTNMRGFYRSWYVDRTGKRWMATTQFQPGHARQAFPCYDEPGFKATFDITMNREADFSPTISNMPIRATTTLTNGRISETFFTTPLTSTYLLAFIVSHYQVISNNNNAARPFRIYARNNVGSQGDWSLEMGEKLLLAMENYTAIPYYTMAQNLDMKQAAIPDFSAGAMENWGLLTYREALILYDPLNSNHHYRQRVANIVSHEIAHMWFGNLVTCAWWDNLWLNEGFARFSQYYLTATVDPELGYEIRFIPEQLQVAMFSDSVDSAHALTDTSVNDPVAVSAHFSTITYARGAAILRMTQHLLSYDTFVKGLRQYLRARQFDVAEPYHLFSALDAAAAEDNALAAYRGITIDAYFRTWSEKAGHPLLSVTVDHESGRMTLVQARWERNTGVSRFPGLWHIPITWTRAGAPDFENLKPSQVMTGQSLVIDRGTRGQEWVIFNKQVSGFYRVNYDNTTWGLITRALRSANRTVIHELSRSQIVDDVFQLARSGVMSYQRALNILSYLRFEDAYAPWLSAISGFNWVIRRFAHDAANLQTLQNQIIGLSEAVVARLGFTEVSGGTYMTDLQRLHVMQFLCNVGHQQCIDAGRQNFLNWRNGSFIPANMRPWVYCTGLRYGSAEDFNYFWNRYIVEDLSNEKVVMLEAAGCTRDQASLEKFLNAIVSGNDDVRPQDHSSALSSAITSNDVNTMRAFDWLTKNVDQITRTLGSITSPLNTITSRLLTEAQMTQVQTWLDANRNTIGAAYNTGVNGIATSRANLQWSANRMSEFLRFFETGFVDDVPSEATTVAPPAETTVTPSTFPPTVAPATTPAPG
Protocol: M. sexta larvae were reared on artificial diet (Southland Products, Inc.; Lake Village, Ark.) at 26° C., 70% relative humidity with a photoperiod of 12:12 (Light:Dark) h. Midguts were dissected from second day 5th instar larvae, and either immediately used to prepare brush border membrane vesicles (BBMV) or stored at −80° C. BBMV were prepared according to that described in Wolfersberger et al. (1987) as modified in Ferre et al. (1991) and stored in 0.3 M mannitol, 5 mM EGTA, 17 mM Tris-Cl, pH 7.5, at −80° C. until needed. The 115 kDa M. sexta APN was purified as described previously (Lu and Adang, 1996).
Affinity purification method of M. sexta 120 kDa APN from Sf21 cells or M. sexta midgut BBMV was described in Luo et al (1996). Briefly, Cry1Ac, Cry1Ba and Cry3a toxins (200 μg) were coupled to 400 μl of cyanogen bromide-activated Sepharose 4B in 20 mM Na2CO3, pH 9.6. M sexta BBMV (1 ml, 3.4 mg/ml proteins) or Sf21 cells (10^7 cells) were solubilized with 2% 3-[(3-cholamidopropyl) dimethylammoniol]-1-propane-sulphonate (CHAPS) in buffer A (50 mM Na2CO3, pH 9.6, 200 mM NaCl, 5 mM EGTA, 0.1% CHAPS). Insoluble material was removed by centrifugation at 27,000×g for 30 min at 4° C. CHAPS-solubilized BBMV (1 ml) or Sf21 cells (2 ml) were then added to the toxin-coupled Sepharose beads equilibrated with Buffer A. The mixture was incubated at 4° C. overnight. […]

[6] = 40 μg/ml toxin, the sentence does not say which plasmid

B1: Cry1Ba (65 kDa): B. thuringiensis Cry1Ba toxin, 65 kDa form, provided by Dr. Masson (protein)
chain: IEDSLCIAEGNNIDPFVSASTVQTGINIAGRILGVLGVPFAGQLASFYSFLVGELWPRGRDQWEIFLEHVEQLINQQITENARNTALARLQGLGDSFRAYQQSLEDWLENRDDARTRSVLYTQYIALELDFLNAMPLFAIRNQEVPLLMVYAQAANLHLLLLRDASLFGSEFGLTSQEIQRYYERQVERTRDYSDYCVEWYNTGLNSLRGTNAASWVRYNQFRRDLTLGVLDLVALFPSYDTRTYPINTSAQLTREVYTDAIGATGVNMASMNWYNNNAPSFSAIEAAAIRSPHLLDFLEQLTIFSASSRWSNTRHMTYWRGHTIQSRPIGGGLNTSTHGATNTSINPVTLRFASRDVYRTESYAGVLLWGIYLEPIHGVPTVRFNFTNPQNISDRGTANYSQPYESPGLQLKDSETELPPETTERPNYESYSHRLSHIGIILQSRVNVPVYSWTHRSADRTNTIGPNRITQIPMVKASELPQGTTVVRGPGFTGGDILRRTNTGGFGPIRVTVNGPLTQRYRIGFRYASTVDFDFFVSRGGTTVNNFRFLRTMNSGDELKYGNFVRRAFTTPFTFTQIQDIIRTSIQGLSGNGEVYIDKIEIIPVTATFEAEYDLER
[1]; 40 μg/ml toxin in insect PBS, Trypan blue (0.1%) staining, means of three assays (±standard error)
  Mortality (%) (±SE), Cells transfected with pHSP 120: 17.6 (±0.9) %
[1]; [6]
  Mortality of Sf21 cells (cells killed): about 17%
  Toxicity to Sf21 cells in words: low toxicity
[2]
  Mortality (%) (±SE), Cells transfected with pHSP-HR5: 16.5 (±0.1) %
[3]
  Binding of rhodamine-labeled toxin (immunofluorescence): only bound weakly
[4]
  Binding of APN to toxin affinity column: bound weakly
[5]
  Binding of APN to toxin affinity column: bound weakly

B2: Cry3a: trypsin-activated, purified B. thuringiensis Cry3a toxin (protein)
chain: NPHSQGRIRELFSQAESHFRNSMPSFAISGYEVLFLTTYAQAANTHLFLLKDAQIYGEEWGYEKEDIAEFYKRQLKLTQEYTDHCVKWYNVGLDKLRGSSYESWVNFNRYRREMTLTVLDLIALFPLYDVRLYPKEVKTELTRDVLTDPIVGVNNLRGYGTTFSNIENYIRKPHLFDYLHRIQFHTRFQPGYYGNDSFNYWSGNYVSTRPSIGSNDIITSPFYGNKSSEPVQNLEFNGEKVYRAVANTNLAVWPSAVYSGVTKVEFSQYNDQTDEASTQTYDSKRNVGAVSWDSIDQLPPETTDEPLEKGYSHQLNYVMCFLMQGSRGTIPVLTWTHKSVDFFNMIDSKKITQLPLVKAYKLQSGASVVAGPRFTGGDIIQCTENGSAATIYVTPDVSYSQKYRARIHYASTSQITFTLSLDGAPFNQYYFDKTINKGDTLTYNSFNLASFSTPFELSGNNLQIGVTGLSAGDKVYIDKIEFIPVN
[4]
  Binding of APN to toxin affinity column: did not bind

Reference: patent US6586197B1, “Methods and materials for identifying novel pesticide agents” (priority 1999, dated 2003)
